The record followed here is the DeepSol protein solubility set.

The nature of the data set: soluble on expression in E. coli; label from the status in PepcDB or PDB records.
Turning to “MSQGHRDAGAAACRTIIVTNHCPPIMRKRDIWRVDQFHLLRKVGSGYASTVYLGTCRTSGNQVAVKLYHKQKLSELNHFQVAREITIHSSLDHKNIIQLWAAFEDQYGIYLVFEYASKGDVFTEVERRGGQLDEAETVRAVVYPFLSALDYLHSRCIIHRDIKPENLLFTATGVLKVADFGLSINFSQERPVTRVGTLDYMAPEVVVCPDKHRPQDHKELKHLHYTPLVDAWAVGVLAYELIVGRPPFDKGQKKATIAEILNSEPFIPPWLSEGATHFIRWSLTKEVGKRPSVQQLAEHPWIVSHMKQSVLAPARRQLVKTDSFVEPRQLGFRGSNAPGAGEPSGPSKEPPRPLQVSSVAQGGRFLGHSSSMSAMDGMRYRDIHLDSVTGGMASAATEALKSVKRVSDGDGTTGGRPSAAGGRVSRAGTARNSGTGQAPLSRMNSMSAQAVVAAAAAAMASGSFGGAAHGSEDSPKGGRALTREELYASLTAPLGGRGSPVLARSFTAGRASPAPQQMAPLPTNAGRKSGGGGLGSGRSSLSGQATGAPPSRGAAELAHDLSRLRVDSAASGGGGAAGPSTSASGAVPYSPGKGSSGIRPSPPQAPSPTARGLRTGSPLIPSRLSQSFTSPVSPLAAGSNASAGTPHLSRLGKTSNSGIVPAVATANTPGSARPPAGMDAHSSAASSAAAAGAQSSPHQPAAAAAGSSLTVSTTPASPGGSSGYGQTRASPRELPGERDPELEDSEVEDEPETERSPSKSKSLFKKIFS”, the “soluble on expression in E. coli” value is “not soluble”.
The same measure for “MVIEMEPDTHIISALVEHKPGVLQRVAGLFTRRGFNIENITVGESETPGIARMTIIARGDDRVLEQITKQLNKLIDVIKVRDLEPAATVKRELCMVKVHAPSESERSEIIQYTNIFRGRIVDVSPDALTVEVTGDSEKIDAFLELLRNFGIKELARTGPTAMSRGSRTM”: “not soluble”.
The same measure for “MVRKQKRARLIYNPTSGQEIMKKNVAEVLDILESFGYETSAFQTTPRADSAKNEAARASQAGFDLVIAAGGDGTINEVVSGIAPLKRRPKVAIIPTGTTNDFARALKIPRGNPVEATKLIGKNQTIHMDIGRAYNDKYFINIAAAGSLTELTYSVPSQLKTMFGYLAYLVKGAELLPRVRNVPVKVFYDHGVFEGEASMIFVALTNSVGGFETIAPDAKLDDGKFTLILVKTANLFELTDLIRLVLTGGRHINHKKIEYIKTSYLKIIPQGNPPKRMMINLDGEYGGDAPIELRNLKNHIEFFANTDEISDDAITLDTEELVLEAIAQKFAREAESLDEMDKTKEQD”: “soluble”; for “MSLDFEYVTGEEGLKKAIKRLENSPYLYLDTETTGDRIRLVQIGDEENTYVIDLYEIQDIEPLRKLINERGIVGHNLKFDLKYLYRYGIFPSATFDTMIASYLLGYERHSLNHIVSNLLGYSMDKSYQTSDWGASVLSDAQLKYAANDVIVLRELFPKMRDMLNELDAERGEELLKTRTAKIFDLKSPVAIVEMAFVREVAKLEINGFPVDVEELTNKLKAVERETQKRIQEFYIKYRVDPLSPKQLASLLTKKFKLNLPKTPKGNVSTDDKALTSYQDVEPVKLVLEIRKLKKIADKLKELKEHLKNGRVYPEFKQIGAVTGRMSSAHPNIQNIHRDMRGIFKAEEGNTFVISDFSQIELRIAAEYVKDPLMLDAFKKGKDMHRYTASVVLGKKEEEITKEERQLAKAINFGLIYGISAKGLAEYAKLGYGVEISLEEAQVLRERFFKNFKAFKEWHDRVKKELKEKGEVKGHTLLGRRFSANTFNDAVNYPIQGTGADLLKLAVLLFDANLQKKGIDAKLVNLVHDEIVVECEKEKAEEVKEILEKSMKTAGKIILKEVPVEVESVINERWTKEGHHHHHH”: “soluble”; for “MAEWCADHLRNCEGWKSAGLELSTTSDENAKWLDACIRQLVSWSDCTSLGGFHTSIEKLVASDPEAIMARTFLVGLSGLGTEAAARNVEFAKKMDQLEIDAEKYGNAREKRHAKAAILWGRGKHHEAAIEWDKLLDDYPTDLIAVKFSHDAHFFNGNQIGKKNAIEKVIHKWNADLPCYSYLHGMYAFGLEECGIYDDAETQADRALQLNRFDCWASHAKAHVLEMNGRHKEGKEFMYKTEDDWRQGWMLASHNYWHTALFHIEYAEYESALGIFDREIANRFNKTNSLLDMVDASSLLWRLELEGVNVGRDRWRKIEHLSKFIDNHSIVFNDVHLGLAIYRQEDLETEKKLRNSLEKYSSLLSEDNAQISKTIGMPLYDGMLDFARCDYDTAAETMYPIRDKVVQIGGSHAQRDLFVQTLIQSCILSKDPKNWALTPELLVERETLKHDSLLGQRLADKFRALHPL”: “not soluble”.
Then “MKITNPVLKGFNPDPSICRAGEDYYIAVSTFEWFPGVQIHHSKDLVNWHLVAHPLQRVSQLDMKGNPNSGGVWAPCLSYSDGKFWLIYTDVKVVDGAWKDCHNYLVTCETINGDWSEPIKLNSSGFDASLFHDTDGKKYLLNMLWDHRIDRHSFGGIVIQEYSDKEQKLIGKPKVIFEGTDRKLTEAPHLYHIGNYYYLLTAEGGTRYEHAATIARSANIEGPYEVHPDNPILTSWHDPGNPLQKCGHASIVQTHTDEWYLAHLTGRPIHPDDDSIFQQRGYCPLGRETAIQKLYWKDEWPYVVGGKEGSLEVDAPSIPETIFEATYPEVDEFEDSTLNINFQTLRIPFTNELGSLTQAPNHLRLFGHESLTSTFTQAFVARRWQSLHFEAETAVEFYPENFQQAAGLVNYYNTENWTALQVTHDEELGRILELTICDNFSFSQPLNNKIVIPREVKYVYLRVNIEKDKYYYFYSFNKEDWHKIDIALESKKLSDDYIRGGGFFTGAFVGMQCQDTGGNHIPADFRYFRYKEK”, with “soluble”; and “MGSDKIHHHHHHALEENKEAKSLLEGIWLDDNTETALLRVKGDTLFYADAATAPVAFKIIGDSLITYGARTNGYKIEKQGEHIFWFHSAVGDVIRLHKSDTENDSLAFIHTREIPVYNEVIKKDSVVTYDNVRYRGYVYINPSKIKVMRPGVSEEGLGVDNVYYDNIIHICVYEGRKSLYAKDITKQMFKGVVPDDFLQWAILSDMDFMGVDSKGYHYQATVCIPDGASCYMVNITAGKDGGLAFELVR”, with “not soluble”; and “MAHHHHHHMTQQRGKKAAPSKAAVANASASAPDPPPFFSMGPATFTDAIVITKVISVVLPLRHLRDRNILHTTLLKKLLHRPYEASAEDLAQQQLSQQETDDGGKHDCGAHSALDNLAAPTSSSSSTPYVIVHIKSAEIHADTARQVNPRGDVQVNVMVTLVAARLQHGICAGVSEASPFTSCMQVRVPTVAVSAAVAARGSTDDAATLLLGDALEAGADNVSQEGVKDEKAEPSGGDTALDASVSATTTAAAAKRSCCTGIPADQQLRVTARCLEDEPIVPGQAVLLISEPAAMRCMGIRPPRAAPGSFYLTETTQPSAQFSSGEAEGGPEARPKKRARKSRASAGGTGGATPARRIVSIECAIPKREEDGEGGAAAGPRKGPRKRPHT”, with “not soluble”.
Turning to “MSLKVLKKEELVPTLYQLFSQAKEKVLVVSAWIRGSIFKELLSLLPENVQLEVIVRAGNLSDMDITDEAFFRETKKKGGRILLNPKLHSKFLIIDERYAVVGSSNITFMGLYPEGNVETNVLIEEKEKVKELLEFYENLKEESVDYTDVVGYAVSSRSPKEAEIVLLEDLKEQTYLGIQGEEFFLCRLSNVSGKKETREDALNRILSSEVWDWKVAALFAHLYERPEIKTGRLEILGEYEKERNLFKTPTKSVESGSLVKKLEPESEELKRILFKNHSGYDMKYPTYLGKLYNTEVKAYLDMDKVLGMHMAVLGTTGSGKTTFVKKILKNFKESEVIIFDIYGEYAQELGAKEVIVENVLMPISVEDVKDYLKEAGSTLEERSTEEKEFFSVFRRALKPDIEATELKEKSFKEIYEEAVKNLHSLHLKQDAQSVYEHLERTYSRGALEQQPKVLKEVVDFLNSEERVKVFNFKEVDITETKVNLTGLILKEIFIRAKKDRKPRLIVIEEAQNVAPERGTGDVPSGKENVAFVYAKKIAMEGRKLNLGLIAITQRPANLSKFILSQLNTQVIFKLITKNDLDAVSPFFEYSKEDIFRLLPFLKPGTAFVSGLAVPFSFLFQMEEIPYYEGHHHHHH”, the “soluble on expression in E. coli” value is listed as “not soluble”.
Then “GPMSAQDVENAVEAALDPSVGPIIKQQATDFIGSLRSSSTGWKICHEIFSEKTKYKPSTRLICLQTLSEKVREWNNESNLLELQMIRDSVWSYIKELSFLDEPAYISNAVQHLLTLLFLQLYPSNWNDFFASLQGVIAASSQSEFSNFYLKVLLSIGDEIADSLVLKTDVQIQKDNLVKDAIRANDMSDIVSFVYEMMLAYSNAKNYGTVGLCLQVYAQWVSWININLIVNEPCMNLLYSFLQIEELRCAACETMTEIVNKKMKPLEKLNLLNILNLNLFFSKSQEQSTDPNFDEHVAKLINAQGVELVAIKSDPSELSPELKENCSFQLYNLFPYLIRYLSDDYDETSTAVFPFLSDLLVSLRKESSSKELSASLKEFLKSLLEAIIKKMKYDESQEWDDDPDSEEEAEFQEMRKKLKIFQDTINSIDSSLFSSYMYSAITSSLSTAATLSPENSWQLIEFALYETYIFGEGLRGPDAFFNEVDKSPTVLSQILALVTTSQVCRHPHPLVQLLYMEILVRYASFFDYESAAIPALIEYFVGPRGIHNTNERVRPRAWYLFYRFVKSIKKQVVNYTESSLAMLGDLLNISVSPVTDMDAPVPTLNSSIRNSDFNSQLYLFETVGVLISSGNLTPEEQALYCDSLINALIGKANAALSSDLSALENIISVYCSLMAIGNFAKGFPARGSEEVAWLASFNKASDEIFLILDRMGFNEDIRGAVRFTSGRIINVVGPDMLPKVPQLISILLNSIDMNELVDVLSFISQLIHIYKDNMMEITNRMLPTLLMRIFSSLSAAPQGTDDAVKQNDLRKSYISFILQLLNKGFGSILFTEENQVYFDPLINSILHFANLVGEPATQKSSIALVSKMVSLWGGKDGIAGFENFTLSLTPLCFEMPVNPNFNTRDGQSLVVLGELAGLQKIILEKLGDIYKSYLVTVYFPTVNFPDVMASEYLQALSNLDSRSFKQFFQKFIQALKSGNV”, with “soluble”.
The same measure for “GSSCGNDESDPDSTVTIAMATVEKQPQYDAPYLVLDNGEKLWVVQHIVPYRDLKAGERIFGNYSFLEAGESGFAYNIRLNDYTLVPVQKIIGLNPDNMDSIGNMKVQIKDMWPSDDYLNVRFMLNFPSPQKPILNLVVNEMIPWTKDGYAHLELRYNNNGSQGRLVPGMVSFKLDDYSPENSELKGIKVLVNPVDGEEKTYIFSYPLTGEDVPGFNPLDLAELK”: “soluble”.
In the case of “MSLEDKDLRSIQEVRNLIESANKAQKELAAMSQQQIDTIVKAIADAGYGAREKLAKMAHEETGFGIWQDKVIKNVFASKHVYNYIKDMKTIGMLKEDNEKKVMEVAVPLGVVAGLIPSTNPTSTVIYKTLISIKAGNSIVFSPHPNALKAILETVRIISEAAEKAGCPKGAISCMTVPTIQGTDQLMKHKDTAVILATGGSAMVKAAYSSGTPAIGVGPGNGPAFIERSANIPRAVKHILDSKTFDNGTICASEQSVVVERVNKEAVIAEFRKQGAHFLSDAEAVQLGKFILRPNGSMNPAIVGKSVQHIANLAGLTVPADARVLIAEETKVGAKIPYSREKLAPILAFYTAETWQEACELSMDILYHEGAGHTLIIHSEDKEIIREFALKKPVSRLLVNTPGALGGIGATTNLVPALTLGCGAVGGSSSSDNIGPENLFNIRRIATGVLELEDIRKEENQATSELPVDADALIQSLVEKVLAELKEGHHHHHH”, the “soluble on expression in E. coli” value is “soluble”.
On to “KEDMATSELNKTVQKVEEVSKKIKNKAKPKVVWASVYEGSAYIAPKDSYVDNMIKMAGGINACASIDSNEGRVSIEQLHEVAKDADIFVYSSSSDYAPNLDSIKSSAPVLADLDVVKNGNLWVFAPDYYQSVDKTDELIVDLVEMFHPGTTGEKIKHYINYDK”, for which the “soluble on expression in E. coli” value is listed as “not soluble”.
For the sequence “ESLDEVVVVGMGTQRKVSVVGAVTSVNPAAISAPSTSVANMLGGVVPGIIAVDRSGEPGQDVSEFWIRGISTFGANQSALVLIDGIEGNLNDLDPSDIESFSILKDASATAVYGVRGANGVVLVTTRSGQEGR”, the “soluble on expression in E. coli” value is given as “not soluble”.
